This is an account of results in paper PMC6773726, “The ubiquitin-like modifier FAT10 interferes with SUMO activation” (Nature Communications, 2019).

What is called Kd is the concentration at which binding is half-saturated.

Substitutions are numbered along the chain they refer to.

The target in test [1] is T1, AOS1/UBA2, heterodimeric SUMO E1 activating enzyme, recombinant (human, UniProt Q9UBE0 1-346; Q9UBT2 1-640).
T1 construct: expressed from pET11d-UBA2; The N-terminal end of the His tag follows from the printed offset of +23 aa; also called SAE1/SAE2; not shown: 6His, N-terminal, kept
T1 sequence (looked up) 1: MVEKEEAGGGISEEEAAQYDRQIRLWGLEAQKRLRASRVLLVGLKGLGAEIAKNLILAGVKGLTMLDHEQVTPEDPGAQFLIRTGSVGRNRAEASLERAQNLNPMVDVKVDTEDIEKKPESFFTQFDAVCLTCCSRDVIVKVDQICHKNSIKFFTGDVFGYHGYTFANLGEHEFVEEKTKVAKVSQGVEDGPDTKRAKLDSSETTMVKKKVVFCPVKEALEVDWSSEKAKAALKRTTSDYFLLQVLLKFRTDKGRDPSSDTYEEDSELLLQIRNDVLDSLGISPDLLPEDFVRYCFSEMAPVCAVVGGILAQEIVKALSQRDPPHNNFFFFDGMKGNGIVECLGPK
T1 sequence (looked up) 2: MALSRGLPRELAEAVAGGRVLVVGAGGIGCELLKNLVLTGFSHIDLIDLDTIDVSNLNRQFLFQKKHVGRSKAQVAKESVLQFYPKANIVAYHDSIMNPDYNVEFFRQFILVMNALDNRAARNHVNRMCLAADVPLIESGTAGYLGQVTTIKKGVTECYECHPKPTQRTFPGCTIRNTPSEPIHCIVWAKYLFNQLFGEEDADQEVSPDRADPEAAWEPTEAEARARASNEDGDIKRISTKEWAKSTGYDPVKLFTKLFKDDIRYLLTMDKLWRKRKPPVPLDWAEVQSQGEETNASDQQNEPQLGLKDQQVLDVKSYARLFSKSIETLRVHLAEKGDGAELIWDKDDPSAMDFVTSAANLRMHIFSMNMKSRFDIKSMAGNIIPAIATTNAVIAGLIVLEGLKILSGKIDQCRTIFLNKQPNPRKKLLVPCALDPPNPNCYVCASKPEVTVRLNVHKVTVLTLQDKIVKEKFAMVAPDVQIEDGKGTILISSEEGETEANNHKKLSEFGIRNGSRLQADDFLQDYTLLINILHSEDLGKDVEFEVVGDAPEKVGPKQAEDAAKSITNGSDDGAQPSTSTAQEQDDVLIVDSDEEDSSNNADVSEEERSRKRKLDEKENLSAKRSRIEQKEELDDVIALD
Description: BLI; Octet (Forte Bio); sensors loaded with 0.1 mg/ml AOS1/UBA2; GST-FAT10 at 0.5, 0.25, 0.1 and 0.05 mg/ml measured versus GST; buffer TNT (50 mM Tris HCl pH 7.6, 100 mM NaCl, 0.1% Triton X-100); association 600 s, dissociation 600 s. Particulars: both partners purified.

Test [2] has as its target T1, AOS1/UBA2, heterodimeric SUMO E1 …. The test is described as follows: co-IP; recombinant proteins: 25 nM AOS1/UBA2 with 0.7 uM of each FAT10 variant in in vitro buffer without ATP; FAT10 precipitated with the antibody 4F1 on protein A sepharose, 3 h at 8 °C; blots for the E1 subunits. The note with it: both partners purified.

B1: GST-FAT10 (natural protein, human, UniProt O15205 1-165, looked up)
chain: MAPNASCLCVHVRSEEWDLMTFDANPYDSVKKIKEHVRSKTKVPVQDQVLLLGSKILKPRRSLSSYGIDKEKTIHLTLKVVKPSDEELPLFLVESGDEAKRHLLQVRRSSSVAQVKAMIETKTGIIPETQIVTCNGKRLEDGKMMADYGIRKGNLLFLACYCIGG
notes: FAT10 (ubiquitin D, UBD), human; also called FAT10 (in the sentence that gives the Kd); source: E. coli BL21(DE3) (pGEX4T-3-FAT10), purified (glutathione agarose, PD-10 desalting)
Regarding B1, in test [1], the dissociation constant (Kd) was 1800 nM.

B2: FAT10, recombinant, untagged (natural protein, human, UniProt O15205 2-165, looked up)
chain: APNASCLCVHVRSEEWDLMTFDANPYDSVKKIKEHVRSKTKVPVQDQVLLLGSKILKPRRSLSSYGIDKEKTIHLTLKVVKPSDEELPLFLVESGDEAKRHLLQVRRSSSVAQVKAMIETKTGIIPETQIVTCNGKRLEDGKMMADYGIRKGNLLFLACYCIGG
notes: FAT10 (ubiquitin D, UBD), human; also called wild-type FAT10; source: E. coli BL21(DE3) (pSUMO-FAT10), purified (HisTrap, tag removal with ULP-1, cation exchange)
For B2, in test [2], the binding result is “binds”.

B3: FAT10-AV, recombinant, untagged (natural protein, human, UniProt O15205 2-165, looked up)
chain: B2 chain with G163A, G164V
notes: FAT10 (ubiquitin D, UBD), human, C-terminal diglycine motif changed from GG to AV; also called FAT10 diglycine mutant FAT10-AV; source: E. coli BL21(DE3) (pSUMO-FAT10-AV), purified (HisTrap, tag removal with ULP-1, cation exchange)
On to B3, for which, in test [2], the binding result is given as “binds”.
